# Test results: publication PMC8163982, “Partial agonism improves the anti-hyperglycaemic efficacy of an oxyntomodulin-derived GLP-1R/GCGR co-agonist” (Molecular Metabolism, 2021)
# Where a SMILES comes first, the peptide text is derived from it. [ ]: non-standard residue; d: D form. Aib = CC(C)(N)C(=O)O
# Key:
# mouse pancreatic islets = experiment: Fluorescent TMR-ligand uptake in mouse pancreatic islets; format: cell-based; settings: 100 nM, 30 min, confocal imaging, n = 2
# Experimental: Mouse pancreatic islets were isolated and left to recover overnight before being immobilised with Matrigel onto glass-bottom Mattek dishes and stimulated with 100 nM of the indicated TMR-modified agonist for 30 min. Z stacks were recorded for the whole islet volume on a Zeiss LSM780 inverted confocal microscope with a 20× air objective and 1 μm of separation between optical slices.
# [1] = biological target: GCGR-SmBiT (glucagon receptor) (UniProt P47871)
# [2] = biological target: GLP-1R-SmBiT (glucagon-like peptide-1 receptor) (UniProt P43220)
# Huh7-GCGR cells = experiment: Fluorescent TMR-ligand internalisation in Huh7-GCGR cells (high content imaging); format: cell-based, human; settings: 100 nM, 30 min, n = 4
# Experimental: Huh7-GCGR cells were seeded in black clear-bottom plates coated with 0.1% poly-D-lysine and assayed 24 h later. Then 100 nM of fluorescent TMR-conjugated agonist or vehicle was applied for 30 min. The cells were then washed with cold HBSS and incubated for 5 min in cold acetic acid +150 mM of NaCl buffer at a pH of 2.9 to strip surface ligands. After a final wash, the cells were resuspended in HBSS and the fluorescent ligand uptake was measured and quantified by high content imaging as described in Section 2.9.
# GCGR [3] = biological target: T1, GCGR (Homo sapiens, UniProt P47871); experiment: NanoBiT β-arrestin-2 recruitment to GCGR-SmBiT in HEK293T cells; format: cell-based; design: expressed in transfected cells; host or cells: HEK293T
# GCGR [4] = biological target: T1, GCGR; experiment: NanoBiT mini-Gs recruitment to GCGR-SmBiT in HEK293T cells; format: cell-based; design: expressed in transfected cells; host or cells: HEK293T
# [5] = biological target: GLP-1R-SmBiT (glucagon-like peptide-1 receptor) (UniProt P43220); experiment: split reporter (BiFC, NanoBiT); HEK293T cells co-transfected with receptor-SmBiT and LgBiT-mini-G or LgBiT-β-arrestin-2; in HBSS with furimazine, 37 °C; 5 min baseline, then peptide agonist added and luminescence recorded for 30 min; K@[max] from one-phase (mini-Gs) or bi-exponential (β-arrestin-2) fits at a single maximal agonist concentration
# [6] = biological target: GCGR-SmBiT (glucagon receptor) (UniProt P47871); experiment: as above
# Chain of GLP-1R-SmBiT (glucagon-like peptide-1 receptor) (P43220 24-463): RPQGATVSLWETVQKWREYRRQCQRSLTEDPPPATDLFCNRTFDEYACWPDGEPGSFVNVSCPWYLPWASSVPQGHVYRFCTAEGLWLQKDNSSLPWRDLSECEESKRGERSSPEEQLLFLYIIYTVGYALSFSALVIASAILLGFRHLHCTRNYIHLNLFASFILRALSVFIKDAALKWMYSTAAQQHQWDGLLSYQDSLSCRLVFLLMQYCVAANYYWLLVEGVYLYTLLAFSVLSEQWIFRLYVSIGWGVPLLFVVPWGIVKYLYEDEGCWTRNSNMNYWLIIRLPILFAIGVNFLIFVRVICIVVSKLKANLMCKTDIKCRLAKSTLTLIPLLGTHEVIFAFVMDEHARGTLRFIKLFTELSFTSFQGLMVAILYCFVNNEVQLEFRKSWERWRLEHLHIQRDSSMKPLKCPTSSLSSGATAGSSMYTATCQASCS
# Chain of GCG-H3 (peptide) (peptide): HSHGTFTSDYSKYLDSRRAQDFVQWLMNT
# T1 sequence (P47871 26-477): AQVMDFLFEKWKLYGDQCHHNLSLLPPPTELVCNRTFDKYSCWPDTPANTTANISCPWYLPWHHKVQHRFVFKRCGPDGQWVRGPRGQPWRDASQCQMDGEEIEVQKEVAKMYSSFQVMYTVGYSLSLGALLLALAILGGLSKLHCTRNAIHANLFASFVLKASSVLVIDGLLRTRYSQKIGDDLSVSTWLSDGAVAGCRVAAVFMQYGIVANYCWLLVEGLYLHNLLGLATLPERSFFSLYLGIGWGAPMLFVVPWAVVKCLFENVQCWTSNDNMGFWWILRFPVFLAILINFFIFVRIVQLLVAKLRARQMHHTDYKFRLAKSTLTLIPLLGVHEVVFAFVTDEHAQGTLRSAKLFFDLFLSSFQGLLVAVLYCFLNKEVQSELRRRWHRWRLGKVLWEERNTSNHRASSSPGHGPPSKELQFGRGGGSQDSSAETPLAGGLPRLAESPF
# Chain of GCGR-SmBiT (glucagon receptor) (P47871 26-477): as above
compound,measurement,setting,value
"HXQGTFTSDYSKYLDAKRAQEFIEWLLAGHHHHHPS(K-TMR)W [SRB103Q-TMR, SRB103Q analogue conjugated to tetramethylrhodamine (TMR) close to the C-terminus]",TMR agonist uptake in mouse islets,mouse pancreatic islets,somewhat reduced compared to SRB103H-TMR
Glucagon-AIB2 (GCG-AIB2) (peptide),"Emax of mini-Gs recruitment to GCGR-SmBiT (NanoBiT, HEK293T, AUC over 30 min)",[1],54 % max
same,"Emax of β-arrestin-2 recruitment to GCGR-SmBiT (NanoBiT, HEK293T, AUC over 30 min)",[1],25 % max
same,"pEC50 of mini-Gs recruitment to GCGR-SmBiT (NanoBiT, HEK293T, AUC over 30 min)",[1],6.7 pEC50 (M)
same,"pEC50 of β-arrestin-2 recruitment to GCGR-SmBiT (NanoBiT, HEK293T, AUC over 30 min)",[1],6.2 pEC50 (M)
GLP-1-AIB2 (peptide),"Emax of mini-Gs recruitment to GLP-1R-SmBiT (NanoBiT, HEK293T, AUC over 30 min)",[2],96 % max
same,"Emax of β-arrestin-2 recruitment to GLP-1R-SmBiT (NanoBiT, HEK293T, AUC over 30 min)",[2],68 % max
same,"pEC50 of mini-Gs recruitment to GLP-1R-SmBiT (NanoBiT, HEK293T, AUC over 30 min)",[2],7.9 pEC50 (M)
same,"pEC50 of β-arrestin-2 recruitment to GLP-1R-SmBiT (NanoBiT, HEK293T, AUC over 30 min)",[2],7.7 pEC50 (M)
"HXHGTFTSDYSKYLDAKRAQEFIEWLLAGHHHHHPS(K-TMR)W [SRB103H-TMR, SRB103H analogue conjugated to tetramethylrhodamine (TMR) close to the C-terminus]",TMR-ligand uptake in Huh7-GCGR cells,Huh7-GCGR cells,greater uptake
CSCC[C@H](NC(=O)[C@H](CC(C)C)NC(=O)[C@H](Cc1c[nH]c2ccccc12)NC(=O)[C@H](CCC(N)=O)NC(=O)[C@@H](NC(=O)[C@H](Cc1ccccc1)NC(=O)[C@H](CC(=O)O)NC(=O)[C@H](CCC(N)=O)NC(=O)[C@H](C)NC(=O)[C@H](CCCNC(=N)N)NC(=O)[C@H](CCCNC(=N)N)NC(=O)[C@H](CO)NC(=O)[C@H](CC(=O)O)NC(=O)[C@H](CC(C)C)NC(=O)[C@H](Cc1ccc(O)cc1)NC(=O)[C@H](CCCCN)NC(=O)[C@H](CO)NC(=O)[C@H](Cc1ccc(O)cc1)NC(=O)[C@H](CC(=O)O)NC(=O)[C@H](CO)NC(=O)[C@@H](NC(=O)[C@H](Cc1ccccc1)NC(=O)[C@@H](NC(=O)CNC(=O)[C@H](Cc1c[nH]cn1)NC(=O)C(C)(C)NC(=O)[C@@H](N)Cc1c[nH]cn1)[C@@H](C)O)[C@@H](C)O)C(C)C)C(=O)N[C@@H](CC(N)=O)C(=O)N[C@H](C(=O)O)[C@@H](C)O [GCG-AIB2H3] (H-H[Aib]HGTFTSDYSKYLDSRRAQDFVQWLMNT-OH),Emax,"GCGR [3]; HEK-293T, read-out: GCGR β-arrestin-2 Emax",53 ± 2%
same,EC50,GCGR [3]; read-out: GCGR β-arrestin-2 pEC50 (converted),251 nM
same,Emax,"GCGR [4]; HEK-293T, read-out: GCGR Mini-Gs Emax",74 ± 5%
same,EC50,GCGR [4]; read-out: GCGR Mini-Gs pEC50 (converted),100 nM
GCG-H3 (peptide),"Emax of mini-Gs recruitment to GCGR-SmBiT (NanoBiT, HEK293T, AUC over 30 min)",[1],66 % max
same,"Emax of β-arrestin-2 recruitment to GCGR-SmBiT (NanoBiT, HEK293T, AUC over 30 min)",[1],54 % max
same,"pEC50 of mini-Gs recruitment to GCGR-SmBiT (NanoBiT, HEK293T, AUC over 30 min)",[1],6.8 pEC50 (M)
same,"pEC50 of β-arrestin-2 recruitment to GCGR-SmBiT (NanoBiT, HEK293T, AUC over 30 min)",[1],6.3 pEC50 (M)
LgBiT-mini-Gs (domain or fragment),K@[max] with GLP-1-AIB2 (association rate constant at maximal agonist stimulation),[5],0.21 min⁻¹
same,K@[max] with SRB103H (association rate constant at maximal agonist stimulation),[5],0.93 min⁻¹
same,K@[max] with SRB103Q (association rate constant at maximal agonist stimulation),[5],0.7 min⁻¹
same,K@[max] with GCG (association rate constant at maximal agonist stimulation),[6],0.17 min⁻¹
same,K@[max] with GCG-AIB2 (association rate constant at maximal agonist stimulation),[6],0.11 min⁻¹
same,K@[max] with GCG-AIB2H3 (association rate constant at maximal agonist stimulation),[6],0.13 min⁻¹
same,K@[max] with GCG-H3 (association rate constant at maximal agonist stimulation),[6],0.13 min⁻¹
same,K@[max] with SRB103H (association rate constant at maximal agonist stimulation),[6],0.14 min⁻¹
same,K@[max] with SRB103Q (association rate constant at maximal agonist stimulation),[6],0.13 min⁻¹
GCG-AIB2H3 (peptide),"Emax of mini-Gs recruitment to GCGR-SmBiT (NanoBiT, HEK293T, AUC over 30 min)",[1],74 % max
same,"Emax of β-arrestin-2 recruitment to GCGR-SmBiT (NanoBiT, HEK293T, AUC over 30 min)",[1],53 % max
same,"pEC50 of mini-Gs recruitment to GCGR-SmBiT (NanoBiT, HEK293T, AUC over 30 min)",[1],7 pEC50 (M)
same,"pEC50 of β-arrestin-2 recruitment to GCGR-SmBiT (NanoBiT, HEK293T, AUC over 30 min)",[1],6.6 pEC50 (M)
